# Measured values as given in patent publication US8916149B2, “Preventing and treating sepsis” (University of Rochester, priority 2008, dated 2014).
# Entries after “also recorded” stand apart in the source; their conditions may differ.
# Legend:
# Assay type in all cases: cell-based
# human neutrophils [1] = experiment: Neutrophil adhesion assay on immobilized fibronectin (FN); settings: 10 μg/ml protein
# Procedure: The adhesion assay was carried out essentially as described (Vorup-Jensen et al., PNAS 102:1614 (2005)). Cover slips were coated with FN in coating buffer (150 mM NaCl/20 mM Tris.HCl, pH 9.0) for over night at 4° C. and for 4 hours at room temperature. Residual binding sites were blocked by incubation of the wells with 0.05% (wt/vol) polyvinylpyrrolidone in PBS for 30 minutes at room temperature. […] The cover slips were aspirated, and washed with L15 medium. […] Cells (250 μl) were then immediately added, and further incubated at 37° C. for 15 minutes. Unbound cells were then washed with warm L15 medium. The bound cells were then fixed with formaldehyde. For each experimental condition from three independent donors, five random phase-contrast images were obtained, and the number of cells in each well was scored from printed micrographs.
# human neutrophils [2] = experiment: Intracellular Ca2+ measurement (Fluo-4); settings: 10 nM fMLP
# Procedure: 1×10^7 cells/ml of human neutrophils were labeled with […] Fluo-4 AM (Molecular Probes, Eugene, Oreg.) at 37° C. for 30 minutes, then at room temperature for an additional 5 to 10 minutes. After washing twice, cells were resuspended to 4×10^6 cells/ml (6 ml) in F15 and incubated at RT for de-esterification. For measurements, cells (4×10^6) were spun down in a microtube (1 ml), resuspend in 1 ml of F15 at 37° C., transferred to a quartz cuvette containing a fluorometric stir bar and 1 ml of the same buffer at 37° C., and fluorescence signals were measured in the fluorometer.
# human neutrophils [3] = experiment: Under-agarose migration assay (directional migration); settings: 10 μg/ml rhAPC
# Procedure: Delta T dishes (Bioptechs, Butler, Pa.) were coated with fibronectin (FN). Plates were then rinsed with the appropriate media and allowed to air-dry. Molten agarose (Seakem GTG, FMC Bioproducts, Rockland, Me.) was prepared as described (Harler et al., J Immunol., 162:6792 (1999)). Two milliliters of the resulting gel was added to each dish and allowed to solidify at 4° C. for 5 min. Three wells that were 2 mm apart were prepared in the agarose using a template and a beveled punch that was coated with polymixin B. Care was taken to ensure that the plate bottom was not scratched. Punch sections were removed with an aspirator, and the gel was then equilibrated for one hour at 37° C. The wells were then aspirated and loaded with […] of one of the following: PBS (left well), a suspension containing approximately 200,000 cells (middle well), or a solution containing 5 pmol of fMLP (right well). […] The dishes were incubated for 60 min at 37° C., and then fixed with 10% buffered formalin. Counts were then made of the number of cells that had migrated 1 mm towards the right well (towards fMLP, directional migration), 0.5 mm towards the left and right wells (“straddle”), and 1 mm towards the left well (random migration). The experiments were repeated three times per condition.
molecule,measurement,setting,value
rhAPC: Recombinant human activated protein C obtained from Eli Lilly; FDA-approved drug for severe sepsis (protein) chain 1: ANSFLEELRHSSLERECIEEICDFEEAKEIFQNVDDTLAFWSKHVDGDQCLVLPLEHPCASLCCGHGTCIDGIGSFSCDCRSGWEGRFCQREVSFLNCSLDNGGCTHYCLEEVGWRRCSCAPGYKLGDDLLQCHPAVKFPCGRPWKRMEKKRSHL chain 2: LIDGKMTRRGDSPWQVVLLDSKKKLACGAVLIHPSWVLTAAHCMDESKKLLVRLGEYDLRRWEKWELDLDIKEVFVHPNYSKSTTDNDIALLHLAQPATLSQTIVPICLPDSGLAERELNQAGQETLVTGWGYHSSREKEAKRNRTFVLNFIKIPVVPHNECSEVMSNMVSENMLCAGILGDRQDACEGDSGGPMVASFHGTWFLVGLVSWGEGCGLLHNYGVYTKVSRYLDWIHGHIRDKEAPQKSWAP,fMLP-induced adhesion of human neutrophils to immobilized FN,human neutrophils [1],significantly reduced; also recorded: abolished
same,increase in intracellular Ca2+ concentration by fMLP treatment,human neutrophils [2],had no effect
same,directional migration of neutrophils on FN towards fMLP,human neutrophils [3],decreased
